Results published in patent US20110300138A1 (published 2011).

Tests used:
Assay in all cases: cell-based or functional assay
[1] = molecular target: TSHR with Asp43 mutated to Ala, expressed in CHO cells (human) (UniProt P16473)
[2] = molecular target: TSHR with Lys183 mutated to Ala expressed in CHO cells (human) (UniProt P16473)
[3] = molecular target: TSHR with Asp203 mutated to Ala expressed in CHO cells (human) (UniProt P16473)
[4] = molecular target: TSHR with Thr104 mutated to Ala (expressed in CHO cells) (human) (UniProt P16473)
[5] = molecular target: wild type TSHR (human TSH receptor) expressed in CHO cells (human) (UniProt P16473)
[6] = molecular target: TSHR with Arg80 mutated to Ala expressed in CHO cells (human) (UniProt P16473)
[7] = molecular target: TSHR with Lys58 mutated to Ala expressed in CHO cells (human) (UniProt P16473)
[8] = molecular target: human TSHR (thyroid stimulating hormone receptor), full length, expressed in transfected CHO cells (human) (UniProt P16473)
[9] = molecular target: TSHR with Asp276 mutated to Ala, expressed in CHO cells (human) (UniProt P16473)
[10] = molecular target: TSHR with Arg109 mutated to Ala, expressed in CHO cells (human) (UniProt P16473)
[11] = molecular target: TSHR with Asp151 mutated to Ala, expressed in CHO cells (human) (UniProt P16473)
[12] = molecular target: TSHR with Tyr185 mutated to Ala (human) (UniProt P16473)

- % inhibition of TSH stimulation, 5B3 10 µg/mL, mutated TSHR [1]: 0%
- % inhibition of TSH stimulation, 5B3 100 µg/mL, mutated TSHR [1]: 4%
- Cyclic AMP produced (pmol/mL), 5B3 10 µg/mL + TSH 3 ng/mL, mutated TSHR [1]: 73.7 pmol/mL
- Cyclic AMP produced (pmol/mL), 5B3 100 µg/mL + TSH 3 ng/mL, mutated TSHR [1]: 58 pmol/mL
- Mutated/wild type (%), 5B3 10 µg/mL + TSH 3 ng/mL [1]: 69%
- Mutated/wild type (%), 5B3 100 µg/mL + TSH 3 ng/mL [1]: 56%
- % inhibition of TSH stimulation, Exp 1: 5B3 10 µg/mL [2]: 24%
- % inhibition of TSH stimulation, Exp 1: 5B3 100 µg/mL [2]: 17%
- % inhibition of TSH stimulation, Exp 2: 5B3 10 µg/mL [2]: 9%
- % inhibition of TSH stimulation, Exp 2: 5B3 100 µg/mL [2]: 9%
- Cyclic AMP, Mutated/wild type (%), Exp 1: 5B3 10 µg/mL + TSH 3 ng/mL [2]: 93%
- Cyclic AMP, Mutated/wild type (%), Exp 1: 5B3 100 µg/mL + TSH 3 ng/mL [2]: 91%
- Cyclic AMP, Mutated/wild type (%), Exp 2: 5B3 10 µg/mL + TSH 3 ng/mL [2]: 104%
- Cyclic AMP, Mutated/wild type (%), Exp 2: 5B3 100 µg/mL + TSH 3 ng/mL [2]: 111%
- % inhibition of TSH stimulation: 5B3 10 µg/mL [3]: 0%
- % inhibition of TSH stimulation: 5B3 100 µg/mL [3]: 0%
- Cyclic AMP, Mutated/wild type (%): 5B3 10 µg/mL + TSH 3 ng/mL [3]: 89%
- Cyclic AMP, Mutated/wild type (%): 5B3 100 µg/mL + TSH 3 ng/mL [3]: 84%
- % inhibition of TSH stimulation; 5B3 10 µg/mL [4]: 7%
- % inhibition of TSH stimulation; 5B3 100 µg/mL [4]: 6%
- Cyclic AMP produced; 5B3 10 µg/mL + TSH 3 ng/mL [4]: 59.1 pmol/mL
- Cyclic AMP produced; 5B3 100 µg/mL + TSH 3 ng/mL [4]: 60 pmol/mL
- Mutated/wild type (%) of cyclic AMP produced; 5B3 10 µg/mL + TSH 3 ng/mL [4]: 71%
- Mutated/wild type (%) of cyclic AMP produced; 5B3 100 µg/mL + TSH 3 ng/mL [4]: 68%
- % inhibition of TSH stimulation, Exp 1: 5B3 10 µg/mL [5]: 0%
- % inhibition of TSH stimulation, Exp 1: 5B3 100 µg/mL [5]: 0%
- % inhibition of TSH stimulation, Exp 2: 5B3 10 µg/mL [5]: 0%
- % inhibition of TSH stimulation, Exp 2: 5B3 100 µg/mL [5]: 0%
- % inhibition of TSH stimulation: 5B3 10 µg/mL [5]: 0%
- % inhibition of TSH stimulation: 5B3 100 µg/mL [5]: 0%
- % inhibition of TSH stimulation; 5B3 10 µg/mL [5]: 0%
- % inhibition of TSH stimulation; 5B3 100 µg/mL [5]: 0%
- Cyclic AMP produced; 5B3 10 µg/mL + TSH 3 ng/mL [5]: 75.6 pmol/mL
- Cyclic AMP produced; 5B3 100 µg/mL + TSH 3 ng/mL [5]: 68.3 pmol/mL
- % inhibition of TSH stimulation; 5B3 10 µg/mL [6]: 0.3%
- % inhibition of TSH stimulation; 5B3 100 µg/mL [6]: 4%
- Cyclic AMP produced; 5B3 10 µg/mL + TSH 3 ng/mL [6]: 105 pmol/mL
- Cyclic AMP produced; 5B3 100 µg/mL + TSH 3 ng/mL [6]: 101 pmol/mL
- Mutated/wild type (%) of cyclic AMP produced; 5B3 10 µg/mL + TSH 3 ng/mL [6]: 102%
- Mutated/wild type (%) of cyclic AMP produced; 5B3 100 µg/mL + TSH 3 ng/mL [6]: 107%
- % inhibition of TSH stimulation; 5B3 10 µg/mL; Experiment 1 [7]: 0%
- % inhibition of TSH stimulation; 5B3 10 µg/mL; Experiment 2 [7]: 4%
- % inhibition of TSH stimulation; 5B3 100 µg/mL; Experiment 1 [7]: 0%
- % inhibition of TSH stimulation; 5B3 100 µg/mL; Experiment 2 [7]: 1%
- Cyclic AMP produced; 5B3 10 µg/mL + TSH 3 ng/mL; Experiment 1 [7]: 81.6 pmol/mL
- Cyclic AMP produced; 5B3 10 µg/mL + TSH 3 ng/mL; Experiment 2 [7]: 92.9 pmol/mL
- Cyclic AMP produced; 5B3 100 µg/mL + TSH 3 ng/mL; Experiment 1 [7]: 81.6 pmol/mL
- Cyclic AMP produced; 5B3 100 µg/mL + TSH 3 ng/mL; Experiment 2 [7]: 95.8 pmol/mL
- Mutated/wild type (%) of cyclic AMP produced; 5B3 10 µg/mL + TSH 3 ng/mL; Experiment 1 [7]: 99%
- Mutated/wild type (%) of cyclic AMP produced; 5B3 10 µg/mL + TSH 3 ng/mL; Experiment 2 [7]: 88%
- Mutated/wild type (%) of cyclic AMP produced; 5B3 100 µg/mL + TSH 3 ng/mL; Experiment 1 [7]: 101%
- Mutated/wild type (%) of cyclic AMP produced; 5B3 100 µg/mL + TSH 3 ng/mL; Experiment 2 [7]: 106%
- % Inhibition of K1-18 IgG stimulation; 10 ng/mL K1-18 IgG + 100 µg/mL 5B3 IgG [8]: 0%
- % Inhibition of K1-18 stimulation; 10 ng/mL K1-18 + 100 µg/mL 5B3 IgG [8]: 0%
- % Inhibition of K1-18 stimulation; 10 ng/mL KM 8 [K1-18] + 10 µg/mL 5B3 IgG [8]: 3.5%
- Experiment 1; % inhibition of TSH stimulation; 5B3 10 µg/mL [9]: 6%
- Experiment 1; % inhibition of TSH stimulation; 5B3 100 µg/mL [9]: 4%
- Experiment 1; Mutated/wild type (%) of cyclic AMP produced; 5B3 10 µg/mL + TSH 3 ng/mL [9]: 84%
- Experiment 1; Mutated/wild type (%) of cyclic AMP produced; 5B3 100 µg/mL + TSH 3 ng/mL [9]: 94%
- Experiment 1; cyclic AMP produced; 5B3 10 µg/mL + TSH 3 ng/mL [9]: 66.8 pmol/mL
- Experiment 1; cyclic AMP produced; 5B3 100 µg/mL + TSH 3 ng/mL [9]: 68.5 pmol/mL
- Experiment 2; % inhibition of TSH stimulation; 5B3 10 µg/mL [9]: 4%
- Experiment 2; % inhibition of TSH stimulation; 5B3 100 µg/mL [9]: 0%
- Experiment 2; Mutated/wild type (%) of cyclic AMP produced; 5B3 10 µg/mL + TSH 3 ng/mL [9]: 67%
- Experiment 2; Mutated/wild type (%) of cyclic AMP produced; 5B3 100 µg/mL + TSH 3 ng/mL [9]: 75%
- Experiment 2; cyclic AMP produced; 5B3 10 µg/mL + TSH 3 ng/mL [9]: 71.6 pmol/mL
- Experiment 2; cyclic AMP produced; 5B3 100 µg/mL + TSH 3 ng/mL [9]: 75.9 pmol/mL
- % inhibition of TSH stimulation; 5B3 10 µg/mL; Experiment 1 [10]: 0%
- % inhibition of TSH stimulation; 5B3 10 µg/mL; Experiment 2 [10]: 0%
- % inhibition of TSH stimulation; 5B3 100 µg/mL; Experiment 1 [10]: 0%
- % inhibition of TSH stimulation; 5B3 100 µg/mL; Experiment 2 [10]: 0%
- Cyclic AMP produced; 5B3 10 µg/mL + TSH 3 ng/mL; Experiment 1 [10]: 34.4 pmol/mL
- Cyclic AMP produced; 5B3 10 µg/mL + TSH 3 ng/mL; Experiment 2 [10]: 60.6 pmol/mL
- Cyclic AMP produced; 5B3 100 µg/mL + TSH 3 ng/mL; Experiment 1 [10]: 34.5 pmol/mL
- Cyclic AMP produced; 5B3 100 µg/mL + TSH 3 ng/mL; Experiment 2 [10]: 56.6 pmol/mL
- Mutated/wild type (%) of cyclic AMP produced; 5B3 10 µg/mL + TSH 3 ng/mL; Experiment 1 [10]: 52%
- Mutated/wild type (%) of cyclic AMP produced; 5B3 10 µg/mL + TSH 3 ng/mL; Experiment 2 [10]: 88%
- Mutated/wild type (%) of cyclic AMP produced; 5B3 100 µg/mL + TSH 3 ng/mL; Experiment 1 [10]: 50%
- Mutated/wild type (%) of cyclic AMP produced; 5B3 100 µg/mL + TSH 3 ng/mL; Experiment 2 [10]: 85%
- % inhibition of TSH stimulation, mutated TSHR; 5B3 10 µg/mL [11]: 11%
- % inhibition of TSH stimulation, mutated TSHR; 5B3 100 µg/mL [11]: 0%
- Mutated/wild type (%) of cyclic AMP produced; test sample: 5B3 10 µg/mL + TSH (3 ng/mL) [11]: 53%
- Mutated/wild type (%) of cyclic AMP produced; test sample: 5B3 100 µg/mL + TSH (3 ng/mL) [11]: 57%
- % inhibition of TSH stimulation, 5B3 10 µg/mL, mutated TSHR [12]: 10%
- % inhibition of TSH stimulation, 5B3 100 µg/mL, mutated TSHR [12]: 0%
- Cyclic AMP produced (pmol/mL), 5B3 10 µg/mL + TSH 3 ng/mL, mutated TSHR [12]: 47 pmol/mL
- Cyclic AMP produced (pmol/mL), 5B3 100 µg/mL + TSH 3 ng/mL, mutated TSHR [12]: 56.1 pmol/mL
- Mutated/wild type (%) of cyclic AMP produced; 5B3 10 µg/mL + TSH 3 ng/mL [12]: 37%
- Mutated/wild type (%) of cyclic AMP produced; 5B3 100 µg/mL + TSH 3 ng/mL [12]: 58%
Substance: 5B3 IgG (antibody)
